Molecular target: the molecule itself
Experiment: cross-linking; HCT116 cells (shctrl or shACSL5) treated without or with DSS crosslinker; whole cell lysates, Western blot against IDH2; dimer and monomer of IDH2

B1: isocitrate dehydrogenase 2 (IDH2) (enzyme, human (endogenous in HCT116), UniProt P48735 40-452, looked up)
chain: ADKRIKVAKPVVEMDGDEMTRIIWQFIKEKLILPHVDIQLKYFDLGLPNRDQTDDQVTIDSALATQKYSVAVKCATITPDEARVEEFKLKKMWKSPNGTIRNILGGTVFREPIICKNIPRLVPGWTKPITIGRHAHGDQYKATDFVADRAGTFKMVFTPKDGSGVKEWEVYNFPAGGVGMGMYNTDESISGFAHSCFQYAIQKKWPLYMSTKNTILKAYDGRFKDIFQEIFDKHYKTDFDKNKIWYEHRLIDDMVAQVLKSSGGFVWACKNYDGDVQSDILAQGFGSLGLMTSVLVCPDGKTIEAEAAHGTVTRHYREHQKGRPTSTNPIASIFAWTRGLEHRGKLDGNQDLIRFAQMLEKVCVETVESGAMTKDLAGCIHGLSNVKLNEHFLNTTDFLDTIKSNLDRALGRQ
notes: IDH2, mitochondrial isocitrate dehydrogenase 2, endogenous in human HCT116 cells; source: endogenous, HCT116 lysate
stoichiometry N: 2
